Results on 18 sequences are retold here after the supplement of paper PMC12764529.

± gives the half width of the 95% confidence interval.

Data set [1] in a line: folding stability dG unfold from trypsin proteolysis; higher = more stable. The procedure, abridged:
(§1)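 Bayesian fitting of sequencing counts gave K50 for each design. Unfolding free energy followed by setting this against a sequence-predicted unfolded-state K50 and a shared folded-state K50, either per protease or with trypsin and chymotrypsin combined. The designs, under 80 residues and lacking cysteine, were digested in a PA-tagged cDNA display format at 11 threefold-diluted protease concentrations and without protease, and only those with AlphaFold2 dimer inter-PAE above 15 were kept.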

Data set [2] in a line: folding stability dG unfold (combined trypsin and chymotrypsin); higher = more stable. The method, boiled down: as §1
Data set [3] in a line: folding stability dG unfold from chymotrypsin proteolysis; higher = more stable. The method, boiled down:
as §1

As to “SAPDKIEIPITFPNGYTFWIKIDPDRIRVTWMDNGLRREKEITPDGMIKLDFRMPNGRPIMSPTIPLEDSAG [r14_213_TrROS]”, the “folding stability dG unfold” value in data set [1] was determined as 0.984 ± 0.028 kcal/mol; in data set [2], 1.54 ± 0.059 kcal/mol; in data set [3] it was 1.93 ± 0.12 kcal/mol.
For “SAPDVGPEERARRLIEEARAEVEAARAAGDPSVPRRVVFDELAVAHPEEAARILEEAARLGIPVEVRPPSAG [r14_908_JUSTAS]” the same measures were 0.252 ± 0.11 kcal/mol, 0.748 ± 0.083 kcal/mol and 0.98 ± 0.044 kcal/mol.
For “SAPILPDAVVSEKPSVSQLPGNSTLVTTTYTYPGGPTITKTTTYTVDPSTGKWTTTSSTTLTPEAAAAASAG [r14_842_JUSTAS]” the same measures were 0.377 ± 0.041 kcal/mol, 0.754 ± 0.066 kcal/mol and 0.977 ± 0.075 kcal/mol.
Regarding “SAPKIDSISIMWPGNHWYISIWYPDKNGEPMKEVMFPFESPEDLKDQIEELSPPGDVTVDIYPMPPDAFSAG [r14_964_TrROS]”, the “folding stability dG unfold” value in data set [1] was found to be 1.38 ± 0.047 kcal/mol; in data set [2], 1.51 ± 0.098 kcal/mol; in data set [3] it was 1.54 ± 0.036 kcal/mol.
As for “SAPKLEIEEVHVNPNDGMVMITFQIDNLPPGLKITIKPKNGKPRRWTGEPGKPIMFMIPPGVDDIEIEWSAG [r14_671_TrROS]”, the “folding stability dG unfold” value came out at 1.64 ± 0.048 kcal/mol in data set [1], 1.94 ± 0.15 kcal/mol in data set [2] and 2.06 ± 0.11 kcal/mol in data set [3].
For the sequence “SAPKNYRFKIYFPNGVEFTIPPGWDLEIEEFDPEDGVIRIKMTRYDKDDGKPVEKHDFPFPFRILEPDPSAG [r14_927_TrROS]”, the “folding stability dG unfold” value in data set [1] was found to be 1.73 ± 0.06 kcal/mol; in data set [2] it was 1.89 ± 0.25 kcal/mol; in data set [3], 1.84 ± 0.23 kcal/mol.
On the same counts, the results for “SAPLDPDQAKEQAENIADYFQDEMQDQFGMDPSDIDVDVKVEQEPNGHYRITVEITMGNMPIEMEIYVPSAG [r14_226_TrROS]” are 1.45 ± 0.11 kcal/mol, 1.8 ± 0.12 kcal/mol and 2.1 ± 0.049 kcal/mol.
Consider “SAPLKIDLDIEPIPPGDKVRFNARITYPDGHPIRIPFEIYVPPDEIVIKFPIQDPKNGEPIAPLTFVIKSAG [r14_670_TrROS]”, for which the entries for the “folding stability dG unfold” value in data set [1], in data set [2] and in data set [3] were 1.53 ± 0.046 kcal/mol, 1.67 ± 0.19 kcal/mol and 1.97 ± 0.2 kcal/mol, respectively.
For the sequence “SAPLTPEEAEEWAETLADELADKAGIPNVEIKVEPSPDGYWTAEIRFPNNGKKIRITWENGRPKITEIESAG [r14_925_TrROS]”, the “folding stability dG unfold” value in data set [1] was determined as 2.84 ± 0.2 kcal/mol; in data set [2], 2.74 ± 0.16 kcal/mol; in data set [3] it was 2.63 ± 0.093 kcal/mol.
Consider “SAPPLPPETITLTLTIDGYEITVTLTRLPDGTVKLTVTVTLPDGTTVTITMYFDAKTNKWYITKIEITPPSA [r9_795_TrROS_Hall]”, for which the “folding stability dG unfold” value in data set [1] worked out at 4.04 ± 0.48 kcal/mol; in data set [2], 5.26 ± 0.33 kcal/mol; in data set [3] it was 5.19 ± 0.12 kcal/mol.
For the sequence “SAPPPVQTLTLTVYDPETGRLVKIEVTRRPDGTLEVRVEVVDLETNEVTTETITLPGLTLDELLKLLEEASA [r9_618_TrROS_Hall]”, the “folding stability dG unfold” value in data set [1] is 3.09 ± 0.16 kcal/mol; in data set [2], 3.65 ± 0.16 kcal/mol; in data set [3], 4.02 ± 0.16 kcal/mol.
On the same counts, the results for “SAPPRTFIIPIERNPDGNVRLNIRMPGMEIEYEFPPGKDAEDALDKLSPHPGFNVELTEVDPNWIKITFSAG [r14_404_TrROS]” are 1.3 ± 0.23 kcal/mol, 1.28 ± 0.48 kcal/mol and 1.75 ± 0.35 kcal/mol.
As to “SAPSPKTPETLVFLSEEESEVVEERLSPSGKPFLVKRKRRFLRYRYVDEDGNVTSVGEREEPVEEELVLSAG [r14_934_JUSTAS]”, the “folding stability dG unfold” value amounted to 0.985 ± 0.094 kcal/mol in data set [1], 0.672 ± 0.087 kcal/mol in data set [2] and 0.231 ± 0.13 kcal/mol in data set [3].
For “SAPSPSVPLDPVTTETVLVKDPEKGEEITLEILTDANSDEVLVRITYPDGSEVVLRLKKEEVEKVIEALSAG [r14_240_JUSTAS]” the same measures were 4 ± 0.37 kcal/mol, 3.41 ± 0.12 kcal/mol and 3.08 ± 0.11 kcal/mol.
In the case of “SAPVIEITEVTFNPDGSVEVTLVIPFPDDPEIPPEEIAKAIKEAFGFEEVTVEPIPETGAWRITLRAPGSAG [r14_228_TrMRF]”, the “folding stability dG unfold” value was 3.4 ± 0.14 kcal/mol in data set [1], 4.07 ± 0.12 kcal/mol in data set [2] and 4.18 ± 0.089 kcal/mol in data set [3].
Turning to “SAPVVVVETIPDGGVLIVPAVFEPDKLLEYVEEIVNKIKPKGAEVEAKVIKVEPFEDFVVVTFEVKVKPSAG [r14_345_TrMRF]”, the “folding stability dG unfold” value in data set [1] is 1.69 ± 0.12 kcal/mol; in data set [2] it was 1.68 ± 0.16 kcal/mol; in data set [3] it was 1.7 ± 0.032 kcal/mol.
“SARIRFPDGKPIDMEIVNIHRTPNGLTITIVLRHKDEYRVITFEIPPDGEIRIKSVERVPLPPGDPALVSAG [r14_13_TrROS]”: the “folding stability dG unfold” value in data set [1] was 1.46 ± 0.059 kcal/mol; in data set [2], 2.96 ± 0.12 kcal/mol; in data set [3], 3.37 ± 0.059 kcal/mol.
For “SASASQTTIEYTVPVPAGTSPDEPLTLTVTLPDKEIPIEVGTLENLPPDATVTITLDTTEPTFTVTLTPSAG [r14_554_JUSTAS]”, the “folding stability dG unfold” value was 1.52 ± 0.051 kcal/mol in data set [1], 0.799 ± 0.096 kcal/mol in data set [2] and -0.451 ± 0.23 kcal/mol in data set [3].
